Numbering of substitutions follows the chain as printed. Names may count otherwise. Each block holds one binder with its values, some of them ahead of it.
Columns and labels:
[1] = biological target: T1, Recombinant DR3-Fc, Q93038; experiment: ELISA; conditions: chain shown with the change; value read at the highest DR3-Fc concentration point, about 1000 nM; parent: est. 130; read off a plot
T1 chain: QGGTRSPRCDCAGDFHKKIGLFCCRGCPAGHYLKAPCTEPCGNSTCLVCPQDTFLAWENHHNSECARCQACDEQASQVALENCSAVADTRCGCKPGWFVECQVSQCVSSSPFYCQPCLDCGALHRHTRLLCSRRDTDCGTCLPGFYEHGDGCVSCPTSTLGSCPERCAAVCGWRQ

[2] = recombinant expression, Expi293; conditions: glycan lost; control: wild type
[3] = glycan lost; control: wild type
[4] = biological target: Fc-His-TL1A (TL1W61) (human); experiment: ELISA; reversed format: TL1A molecules immobilised, DR3 titrated

response (x 10^6 chemiluminescence) [1]: 10
B1: His-TL1A (TL1W2), O95150 C162S (protein)
chain: MAEDLGLSFGETASVEMLPEHGSCRPKARSSSARWALTCCLVLLPFLAGLTTYLLVSQLRAQGEACVQFQALKGQEFAPSHQQVYAPLRADGDKPRAHLTVVRQTPTQHFKNQFPALHWEHELGLAFTKNRMNYTNKFLLIPESGDYFIYSQVTFRGMTSESSEIRQAGRPNKPDSITVVITKVTDSYPEPTQLLMGTKSVCEVGSNWFQPIYLGAMFSLQEGDKLMVNVSDISLVDYTKEDKTFFGAFLL

B2: TL1A (TNFSF15): N133Q (protein)
parent chain: B1 chain with S162C
expression_or_secretion [2]: no change | other: solubility [3]: no change

response (x 10^6 chemiluminescence) [1]: 9
B3: His-TL1A (TL1W2), O95150 C202S (protein)
chain: B1 chain with S162C, C202S

EC50 [4]: 2.2 nM
B4: Recombinant DR3-Fc (Fc fusion)
chain: T1 chain

response (x 10^6 chemiluminescence) [1]: 21
B5: His-TL1A (TL1W2), O95150 C162L; C202L (protein)
chain: VYAPLRADGDKPRAHLTVVRQTPTQHFKNQFPALHWEHELGLAFTKNRMNYTNKFLLIPESGDYFIYSQVTFRGMTSELSEIRQAGRPNKPDSITVVITKVTDSYPEPTQLLMGTKSVLEVGSNWFQPIYLGAMFSLQEGDKLMVNVSDISLVDYTKEDKTFFGAFLL

From paper PMC9709071
